Source: the supplement of paper PMC11316812
± gives the standard deviation of the averaged measurements.

Key:
hTERT-HMEC = assay: percentage of EdU-negative (G0-arrested) nuclei per well, 72 h; higher = more G0 arrest; conditions: reference: sequence is the full UniProt precursor, the tested protein was the secreted form or ectodomain
MCF7 = assay: as above; conditions: reference: sequence is the full UniProt precursor, the tested protein was the secreted form or ectodomain
[1] = protein concentration 0.0225 µM
[2] = protein concentration 0.0357143 µM
[3] = protein concentration 0.357143 µM
[4] = protein concentration 0.0257143 µM
[5] = protein concentration 0.257143 µM
[6] = protein concentration 0.03125 µM
[7] = protein concentration 0.3125 µM
[8] = protein concentration 0.0245 µM
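Further: secreted proteins added to cultured cells, EdU pulse at the end, nuclei found by Hoechst imaging, EdU status from nuclear versus surrounding ring intensity ratio, PBS as neutral control.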

MPRAPAPLYACLLGLCALLPRLAGLNICTSGSATSCEECLLIHPKCAWCSKEDFGSPRSITSRCDLRANLVKNGCGGEIESPASSFHVLRSLPLSSKGSGSAGWDVIQMTPQEIAVNLRPGDKTTFQLQVRQVEDYPVDLYYLMDLSLSMKDDLDNIRSLGTKLAEEMRKLTSNFRLGFGSFVDKDISPFSYTAPRYQTNPCIGYKLFPNCVPSFGFRHLLPLTDRVDSFNEEVRKQRVSRNRDAPEGGFDAVLQAAVCKEKIGWRKDALHLLVFTTDDVPHIALDGKLGGLVQPHDGQCHLNEANEYTASNQMDYPSLALLGEKLAENNINLIFAVTKNHYMLYKNFTALIPGTTVEILDGDSKNIIQLIINAYNSIRSKVELSVWDQPEDLNLFFTATCQDGVSYPGQRKCEGLKIGDTASFEVSLEARSCPSRHTEHVFALRPVGFRDSLEVGVTYNCTCGCSVGLEPNSARCNGSGTYVCGLCECSPGYLGTRCECQDGENQSVYQNLCREAEGKPLCSGRGDCSCNQCSCFESEFGKIYGPFCECDNFSCARNKGVLCSGHGECHCGECKCHAGYIGDNCNCSTDISTCRGRDGQICSERGHCLCGQCQCTEPGAFGEMCEKCPTCPDACSTKRDCVECLLLHSGKPDNQTCHSLCRDEVITWVDTIVKDDQEAVLCFYKTAKDCVMMFTYVELPSGKSNLTVLREPECGNTPNAMTILLAVVGSILLVGLALLAIWKLLVTIHDRREFAKFQSERSRARYEMASNPLYRKPISTHTVDFTFNKFNKSYNGTVD
percentage of EdU-negative (hTERT-HMEC; [1]): 5.13 ± 0.59%
percentage of EdU-negative (hTERT-HMEC; protein concentration 0.225 µM): 7.6 ± 1.1%
percentage of EdU-negative (MCF7; [1]): 25.2 ± 1.3%
percentage of EdU-negative (MCF7; protein concentration 0.225 µM): 26 ± 1.5%

MAPRGCIVAVFAIFCISRLLCSHGAPVAPMTPYLMLCQPHKRCGDKFYDPLQHCCYDDAVVPLARTQTCGNCTFRVCFEQCCPWTFMVKLINQNCDSARTSDDRLCRSVS [Q6UW32]
percentage of EdU-negative (hTERT-HMEC; [2]): 4.73 ± 0.98%
percentage of EdU-negative (hTERT-HMEC; [3]): 5.65 ± 1.1%
percentage of EdU-negative (MCF7; [2]): 24.2 ± 1.9%
percentage of EdU-negative (MCF7; [3]): 25.5 ± 0.59%

MQLQASLSFLLILTLCLELRSELARDTIKDLLPNVCAFPMEKGPCQTYMTRWFFNFETGECELFAYGGCGGNSNNFLRKEKCEKFCKFT
percentage of EdU-negative (hTERT-HMEC; [4]): 4.34 ± 0.046%
percentage of EdU-negative (hTERT-HMEC; [5]): 4.94 ± 0.32%
percentage of EdU-negative (MCF7; [4]): 25.8 ± 1.5%
percentage of EdU-negative (MCF7; [5]): 24.81 ± 0.086%

MRFLAATFLLLALSTAAQAEPVQFKDCGSVDGVIKEVNVSPCPTQPCQLSKGQSYSVNVTFTSNIQSKSSKAVVHGILMGVPVPFPIPEPDGCKSGINCPIQKDKTYSYLNKLPVKSEYPSIKLVVEWQLQDDKNQSLFCWEIPVQIVSHL
percentage of EdU-negative (hTERT-HMEC; [6]): 4.48 ± 0.41%
percentage of EdU-negative (hTERT-HMEC; [7]): 5.49 ± 0.12%
percentage of EdU-negative (MCF7; [6]): 25.6 ± 0.29%
percentage of EdU-negative (MCF7; [7]): 27.1 ± 2%

MSPSPTALFCLGLCLGRVPAQSGPLPKPSLQALPSSLVPLEKPVTLRCQGPPGVDLYRLEKLSSSRYQDQAVLFIPAMKRSLAGRYRCSYQNGSLWSLPSDQLELVATGVFAKPSLSAQPGPAVSSGGDVTLQCQTRYGFDQFALYKEGDPAPYKNPERWYRASFPIITVTAAHSGTYRCYSFSSRDPYLWSAPSDPLELVVTGTSVTPSRLPTEPPSPVAEFSEATAELTVSFTNEVFTTETSRSITASPKESDSPAGPARQYYTKGNLVRICLGAVILIILAGFLAEDWHSRRKRLRHRGRAVQRPLPPLPPLPLTRKSNGGQDGGRQDVHSRGLCS [Q9HCN6]
percentage of EdU-negative (hTERT-HMEC; [1]): 4.56 ± 0.87%
percentage of EdU-negative (hTERT-HMEC; protein concentration 0.225 µM): 5.35 ± 0.6%
percentage of EdU-negative (MCF7; [1]): 24.78 ± 0.15%
percentage of EdU-negative (MCF7; protein concentration 0.225 µM): 24.9 ± 1.1%

MVLLWLTLLLIALPCLLQTKEDPNPPITNLRMKAKAQQLTWDLNRNVTDIECVKDADYSMPAVNNSYCQFGAISLCEVTNYTVRVANPPFSTWILFPENSGKPWAGAENLTCWIHDVDFLSCSWAVGPGAPADVQYDLYLNVANRRQQYECLHYKTDAQGTRIGCRFDDISRLSSGSQSSHILVRGRSAAFGIPCTDKFVVFSQIEILTPPNMTAKCNKTHSFMHWKMRSHFNRKFRYELQIQKRMQPVITEQVRDRTSFQLLNPGTYTVQIRARERVYEFLSAWSTPQRFECDQEEGANTRAWRTSLLIALGTLLALVCVFVICRRYLVMQRLFPRIPHMKDPIGDSFQNDKLVVWEAGKAGLEECLVTEVQVVQKT
percentage of EdU-negative (hTERT-HMEC; [6]): 4.403 ± 0.019%
percentage of EdU-negative (hTERT-HMEC; [7]): 5.4 ± 0.13%
percentage of EdU-negative (MCF7; [6]): 26.3 ± 2.9%
percentage of EdU-negative (MCF7; [7]): 30.4 ± 0.99%

MGTPRIQHLLILLVLGASLLTSGLELYCQKGLSMTVEADPANMFNWTTEEVETCDKGALCQETILIIKAGTETAILATKGCIPEGEEAITIVQHSSPPGLIVTSYSNYCEDSFCNDKDSLSQFWEFSETTASTVSTTLHCPTCVALGTCFSAPSLPCPNGTTRCYQGKLEITGGGIESSVEVKGCTAMIGCRLMSGILAVGPMFVREACPHQLLTQPRKTENGATCLPIPVWGLQLLLPLLLPSFIHFS [Q9BY14]
percentage of EdU-negative (hTERT-HMEC; [8]): 5.14 ± 0.066%
percentage of EdU-negative (hTERT-HMEC; protein concentration 0.245 µM): 5.33 ± 0.8%
percentage of EdU-negative (MCF7; [8]): 25.5 ± 2%
percentage of EdU-negative (MCF7; protein concentration 0.245 µM): 26.5 ± 0.59%
